This note sets out measurements from PMC5500832 (Chemical Science, 2015).

This series is classed as physicochemical. The note with it: all pH values (3, 5, 7 and 9); 20 °C; over eight days; HPLC-MSMS; detection limit = 0.05%.

For FFRKSIINFEKL [compound 3], the “Formation of α-GalCer (background hydrolysis, linker collapse)” value was “No formation of α-GalCer was detected”.
